Laboratory results published in patent US20160237419.

Tested on: supercharged variant of human trypsinogen-1 (PRSS1 sc)
Sequence (chain, as listed by the source mutant): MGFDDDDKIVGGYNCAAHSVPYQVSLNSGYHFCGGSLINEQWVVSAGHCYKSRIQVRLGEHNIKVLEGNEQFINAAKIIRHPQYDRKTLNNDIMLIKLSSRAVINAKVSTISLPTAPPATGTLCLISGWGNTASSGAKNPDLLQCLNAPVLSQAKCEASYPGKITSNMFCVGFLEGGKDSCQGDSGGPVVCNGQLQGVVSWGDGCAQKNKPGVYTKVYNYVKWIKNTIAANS

In the case of trypsin, the “autoactivation (trypsin activity on CBZ-GPR-pNA after incubation with trypsin)” value is reported as “PRSS1 sc (SEQ ID NO 01) does not show a significant autoactivation”.
